Laboratory results taken from publication PMC7458484.

Molecular target: HBV core protein Cp185 (full-length) (hepatitis B virus (Human); compared to …, UniProt Q67855 1-185)
Experiment: time-resolved SAXS (stopped flow), SEC capsid assembly; after mixing ~1 RNA per 6.5 Cp185 monomers; RNA in assembly buffer; RNA added to dimers in disassembly buffer immediately triggered capsid formation; Cp185 in 1.5 M GuHCl, 0.5 M LiCl, 50 mM HEPES pH 7.5, 2 mM DTT mixed 1:1 with assembly buffer 250 mM NaCl, 50 mM HEPES pH 7.5, 2 mM DTT; RNA 0.075 mg/mL final

## GGGUUUGUUUAAAGACUGGGAGGAGUUGGGGGAGGAGCCC (structured_RNA) [PS1 RNA oligo (40 nt, RNA40)]
  binding result: binds
